Measurements: publication PMC12412652 (2025)
Values belong to the binder of their own block, whether it stands above or below them.

Columns and labels:
Test in all cases: BLI
[1] = target: BCL-XL (Homo sapiens)
[2] = target: T1, BCL-W (Homo sapiens)
T1 chain: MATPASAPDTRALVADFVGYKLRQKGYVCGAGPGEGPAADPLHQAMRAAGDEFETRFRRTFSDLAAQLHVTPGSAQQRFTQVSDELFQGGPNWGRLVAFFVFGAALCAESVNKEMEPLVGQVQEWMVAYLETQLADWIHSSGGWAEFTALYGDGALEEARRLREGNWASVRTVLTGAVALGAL

[3] = target: T2, BCL-B (Homo sapiens)
T2 chain: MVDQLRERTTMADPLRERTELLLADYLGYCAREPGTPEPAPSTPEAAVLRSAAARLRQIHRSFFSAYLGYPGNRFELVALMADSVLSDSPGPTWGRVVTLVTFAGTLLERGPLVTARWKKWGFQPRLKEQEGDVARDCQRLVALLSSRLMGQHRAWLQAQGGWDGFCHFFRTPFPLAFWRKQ

[4] = target: BCL-2 (UniProt P10415 1-239, biotin)
Sequence of BCL-2 (P10415 1-207): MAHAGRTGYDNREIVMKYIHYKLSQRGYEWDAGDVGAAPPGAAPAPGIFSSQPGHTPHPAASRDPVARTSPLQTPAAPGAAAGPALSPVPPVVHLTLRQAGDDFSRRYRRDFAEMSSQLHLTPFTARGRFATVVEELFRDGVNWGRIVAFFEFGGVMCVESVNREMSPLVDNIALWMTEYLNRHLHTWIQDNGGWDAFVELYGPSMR

[5] = target: MBP-BAK 16-186, biotinylated (Avi tag, 6-histidine tag) (human, UniProt Q16611 16-186, biotin on the Avi tag (enzymatic, BirA))
[6] = target: T3, BFL-1 (UniProt Q16548 1-175, biotin)
T3 chain: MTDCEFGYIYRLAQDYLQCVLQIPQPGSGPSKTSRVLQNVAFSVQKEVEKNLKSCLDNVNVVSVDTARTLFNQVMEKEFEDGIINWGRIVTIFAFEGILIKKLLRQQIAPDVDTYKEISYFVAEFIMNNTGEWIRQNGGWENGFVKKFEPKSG

[7] = target: T4, MCL-1 (Homo sapiens)
T4 chain: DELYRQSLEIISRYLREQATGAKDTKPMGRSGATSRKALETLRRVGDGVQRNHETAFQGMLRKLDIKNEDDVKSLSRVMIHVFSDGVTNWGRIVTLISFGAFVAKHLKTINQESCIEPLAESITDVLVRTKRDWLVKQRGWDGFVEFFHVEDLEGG

Sequence of BCL-XL (Homo sapiens) (chain, as listed by the source): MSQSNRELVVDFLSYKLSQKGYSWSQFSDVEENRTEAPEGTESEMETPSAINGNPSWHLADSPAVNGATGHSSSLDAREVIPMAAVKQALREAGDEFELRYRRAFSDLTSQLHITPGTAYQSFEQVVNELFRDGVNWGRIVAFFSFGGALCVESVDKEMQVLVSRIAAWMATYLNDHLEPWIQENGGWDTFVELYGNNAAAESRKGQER

B1: αBAK2 (designed binder)
chain: GADPKKVLDKADDQMENVVVTLKQELEELAKERRKLDLTQSEKIELKLRYIVAHLAAIGDIEEAIREAKEEADKLKKAGLVNSQQFAEFKRRLEELHKEADRKRRDYAEEFRNKLEYG
modifications: biotinylated for BLI (Avi tag). Limits not given; the soluble form lacking the transmembrane segment (210-226) is taken by convention. Any loop deletion is not stated
Kd [1]: 5700 nM

B2: αBAX1 (designed binder)
chain: GADPKKVLDKARDQAENRVRELAQKLEELYKEARKLDLTQEERRKLEKRYKAAMEEAIKDIHEAIEQAKEEADKLKDAGLVNEQQLKELKQRLNELAIAAAFRASGDTIEFRRKLQYG
modifications: biotinylated for BLI (Avi tag). Limits not printed in the text (constructs as in cited earlier work); the soluble form lacking the C-terminal tail is taken by convention. Any solubility mutations are not stated
Kd [2]: 300000 nM

B3: αBAX1 (designed binder)
chain: GADPKKVLDKARDQAENRVRELAQKLEELYKEARKLDLTQEERRKLEKRYKAAMEEAIKDIHEAIEQAKEEADKLKDAGLVNEQQLKELKQRLNELAIAAAFRASGDTIEFRRKLQYG
modifications: biotinylated for BLI (Avi tag). Limits not given; the soluble form lacking the transmembrane segment (183-200) is taken by convention
Kd [3]: > 20000 nM

B4: αBAX1 (designed binder)
chain: GADPKKVLDKARDQAENRVRELAQKLEELYKEARKLDLTQEERRKLEKRYKAAMEEAIKDIHEAIEQAKEEADKLKDAGLVNEQQLKELKQRLNELAIAAAFRASGDTIEFRRKLQYG
modifications: biotinylated for BLI (Avi tag). Limits not given; the soluble form lacking the transmembrane segment (210-226) is taken by convention. Any loop deletion is not stated
Kd [1]: 510 nM

B5: BAX-CDP01 (BAX-targeting computationally designed protein 01) (designed binder)
chain: GADPKKVLDKARDQAENRVRELAQKLEELYKEARKLDLTQEERRKLEKRYKAAMEEAIKDIREAIRQAKQEADKLKKAGLVNSQQLKELKQRLNELAIAAALRAIGDAIEFRRKLQYG
Kd [4]: 50 nM
Kd [5]: 3100 nM
Kd [6]: 23 nM

B7: BAX-CDP01 (BAX-targeting computationally designed protein 01) (designed binder)
chain: GADPKKVLDKARDQAENRVRELAQKLEELYKEARKLDLTQEERRKLEKRYKAAMEEAIKDIREAIRQAKQEADKLKKAGLVNSQQLKELKQRLNELAIAAALRAIGDAIEFRRKLQYG
modifications: biotinylated for BLI (Avi tag). Limits not given; the soluble form lacking the transmembrane segment (210-226) is taken by convention. Any loop deletion is not stated
Kd [1]: 38 nM

B9: BAX-CDP01 (BAX-targeting computationally designed protein 01) (designed binder)
chain: GADPKKVLDKARDQAENRVRELAQKLEELYKEARKLDLTQEERRKLEKRYKAAMEEAIKDIREAIRQAKQEADKLKKAGLVNSQQLKELKQRLNELAIAAALRAIGDAIEFRRKLQYG
modifications: biotinylated for BLI (Avi tag). Limits not given; the soluble form lacking the transmembrane segment (183-200) is taken by convention
Kd [3]: 2000 nM

B10: BAX-CDP01 (BAX-targeting computationally designed protein 01) (designed binder)
chain: GADPKKVLDKARDQAENRVRELAQKLEELYKEARKLDLTQEERRKLEKRYKAAMEEAIKDIREAIRQAKQEADKLKKAGLVNSQQLKELKQRLNELAIAAALRAIGDAIEFRRKLQYG
modifications: biotinylated for BLI (Avi tag). Limits not printed in the text (constructs as in cited earlier work); the soluble form lacking the C-terminal tail is taken by convention. Any solubility mutations are not stated
Kd [2]: 6000 nM

B13: BAX-CDP01 (BAX-targeting computationally designed protein 01) (designed binder)
chain: GADPKKVLDKARDQAENRVRELAQKLEELYKEARKLDLTQEERRKLEKRYKAAMEEAIKDIREAIRQAKQEADKLKKAGLVNSQQLKELKQRLNELAIAAALRAIGDAIEFRRKLQYG
modifications: biotinylated for BLI (Avi tag). Limits not given; the conventional BCL-2-fold core 172-327 is taken
Kd [7]: 10 nM

Continued, values first:

Kd [2]: 30000 nM
B6: αBAX2 (designed binder)
chain: GADPKKVLDKARDQAENRVRELRQKLTELYKEARKLDLTQEERRKLIKRYKAAMNEAIKDIHEAIEQAKEEADKLKDAGLVNEQQLKELKQRLNEKALAAAFRASGDTWHARRKLQYG
modifications: biotinylated for BLI (Avi tag). Limits not printed in the text (constructs as in cited earlier work); the soluble form lacking the C-terminal tail is taken by convention. Any solubility mutations are not stated

Kd [1]: 1090 nM
B8: αBAX2 (designed binder)
chain: GADPKKVLDKARDQAENRVRELRQKLTELYKEARKLDLTQEERRKLIKRYKAAMNEAIKDIHEAIEQAKEEADKLKDAGLVNEQQLKELKQRLNEKALAAAFRASGDTWHARRKLQYG
modifications: biotinylated for BLI (Avi tag). Limits not given; the soluble form lacking the transmembrane segment (210-226) is taken by convention. Any loop deletion is not stated

Kd [7]: 18000 nM
B11: αBAX2 (designed binder)
chain: GADPKKVLDKARDQAENRVRELRQKLTELYKEARKLDLTQEERRKLIKRYKAAMNEAIKDIHEAIEQAKEEADKLKDAGLVNEQQLKELKQRLNEKALAAAFRASGDTWHARRKLQYG
modifications: biotinylated for BLI (Avi tag). Limits not given; the conventional BCL-2-fold core 172-327 is taken

Kd [3]: 80000 nM
B12: αBAX2 (designed binder)
chain: GADPKKVLDKARDQAENRVRELRQKLTELYKEARKLDLTQEERRKLIKRYKAAMNEAIKDIHEAIEQAKEEADKLKDAGLVNEQQLKELKQRLNEKALAAAFRASGDTWHARRKLQYG
modifications: biotinylated for BLI (Avi tag). Limits not given; the soluble form lacking the transmembrane segment (183-200) is taken by convention

Kd [7]: 600 nM
B14: αBAX1 (designed binder)
chain: GADPKKVLDKARDQAENRVRELAQKLEELYKEARKLDLTQEERRKLEKRYKAAMEEAIKDIHEAIEQAKEEADKLKDAGLVNEQQLKELKQRLNELAIAAAFRASGDTIEFRRKLQYG
modifications: biotinylated for BLI (Avi tag). Limits not given; the conventional BCL-2-fold core 172-327 is taken
